The target in the assay is F-actin (UniProt P68135). Put plainly: cryoEM (raw images and 2D image averages); full-length myosin-5a with F-actin free in solution, flash frozen in the presence of ATP, low calcium concentration, no cargo adaptor molecules; 1 myosin molecule per 2.5 actin subunits.

Consider “full-length myosin-5a (from UniProt Q99104 1-1853; P0DP26 1-149) (complex)”, for which the percent of myosin molecules attached (from counts per um actin) is less than 10% and the percent of observed myosin molecules attached by both heads to one actin filament stood at 55%.

The values are drawn from doi:10.1101/2023.07.16.549178.
